From patent US20260117203A1, “MUTANT KETOREDUCTASE WITH INCREASED KETOREDUCTASE ACTIVITY AS WELL AS METHODS AND USES INVOLVING THE SAME” (Hoffmann-La Roche Inc., priority 2023, published 2026) come the findings set out here.

Data set [1] addresses T1, Sporidiobolus salmonicolor ketoreductase variant E00174, Trp97_Lys238_Met241_Trp242_Ser245_Gly246_Met316_Met342, SEQ ID NO: 7, His-tag (Sporobolomyces salmonicolor, UniProt Q9UUN9, A238K/F97W/L241M/L316M/M242W/Q245S/T342M/Y246G).
T1 sequence (Q9UUN9 1-343 F97W/A238K/L241M/M242W/Q245S/Y246G/L316M/T342M): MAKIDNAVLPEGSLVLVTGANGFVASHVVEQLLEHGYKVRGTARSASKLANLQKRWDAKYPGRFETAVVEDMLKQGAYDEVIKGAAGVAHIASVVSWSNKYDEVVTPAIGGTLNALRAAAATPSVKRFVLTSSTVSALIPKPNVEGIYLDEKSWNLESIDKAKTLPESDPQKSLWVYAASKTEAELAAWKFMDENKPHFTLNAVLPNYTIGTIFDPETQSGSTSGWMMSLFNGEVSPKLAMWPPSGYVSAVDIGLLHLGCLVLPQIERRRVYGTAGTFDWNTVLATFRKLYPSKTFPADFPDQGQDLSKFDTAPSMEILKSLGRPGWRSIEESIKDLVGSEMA
Put plainly: Kinetic characterization (app. KM, app. kcat), Table 9c, variant E00174. The format is biochemical.

The target of data set [2] is T2, Sporidiobolus salmonicolor ketoreductase variant E00184 (second line so labelled); in Table 9b W97 V134 A224 K238 M241 W242 S245 G246 M316 M342, the mutations of (Sporobolomyces salmonicolor, UniProt Q9UUN9, A238K/F97W/L241M/L316M/M242W/Q245S/S224A/T134V/T342M/Y246G).
T2 construct: second row labelled E00184, evidently E00185
T2 sequence (Q9UUN9 1-343 F97W/T134V/S224A/A238K/L241M/M242W/Q245S/Y246G/L316M/T342M): T1 sequence (Q9UUN9 1-343 F97W/A238K/L241M/M242W/Q245S/Y246G/L316M/T342M) with T134V, S224A
Put plainly: Kinetic characterization (app. KM, app. kcat), Table 9c, variant E00184 (second line). In kind it is biochemical. To be noted: relative to WT = 1.

Data set [3] addresses T3, Sporidiobolus salmonicolor ketoreductase variant E00144, Trp97_Met241_Trp242_Ser245_Met316_Met342, SEQ ID NO: 3, His-tag (Sporobolomyces salmonicolor, UniProt Q9UUN9, F97W/L241M/L316M/M242W/Q245S/T342M).
T3 sequence (Q9UUN9 1-343 F97W/L241M/M242W/Q245S/L316M/T342M): T1 sequence (Q9UUN9 1-343 F97W/A238K/L241M/M242W/Q245S/Y246G/L316M/T342M) with K238A, G246Y
Put plainly: Kinetic characterization (app. KM, app. kcat), Table 9c, variant E00144. The format is biochemical. To be noted: E00144, relative to WT = 1.

Data set [4] deals with T4, Sporidiobolus salmonicolor ketoreductase, wild type (WT), UniProt Q9UUN9, SEQ ID NO: 1 (Sporobolomyces salmonicolor, UniProt Q9UUN9).
T4 sequence (Q9UUN9 1-343): T1 sequence (Q9UUN9 1-343 F97W/A238K/L241M/M242W/Q245S/Y246G/L316M/T342M) with W97F, K238A, M241L, W242M, S245Q, G246Y, M316L, M342T
Put plainly: Kinetic characterization (app. KM, app. kcat), Table 9c, wild type. The format is biochemical. To be noted: reference = 1.

Data set [5] has as its target T5, Sporidiobolus salmonicolor ketoreductase variant E00128, Trp97_Met241_Trp242_Ser245, SEQ ID NO: 2, His-tag (Sporobolomyces salmonicolor, UniProt Q9UUN9, F97W/L241M/M242W/Q245S).
T5 sequence (Q9UUN9 1-343 F97W/L241M/M242W/Q245S): T1 sequence (Q9UUN9 1-343 F97W/A238K/L241M/M242W/Q245S/Y246G/L316M/T342M) with K238A, G246Y, M316L, M342T
Nature of the data set: Kinetic characterization (app. KM, app. kcat), Table 9c, variant E00128. The format is biochemical. Conditions: E00128, relative to WT = 1.

Data set [6] addresses T6, Sporidiobolus salmonicolor ketoreductase variant E00158, Trp97_Lys238_Met241_Trp242_Ser245_Met316_Met342, SEQ ID NO: 6, His-tag (Sporobolomyces salmonicolor, UniProt Q9UUN9, A238K/F97W/L241M/L316M/M242W/Q245S/T342M).
T6 sequence (Q9UUN9 1-343 F97W/A238K/L241M/M242W/Q245S/L316M/T342M): T1 sequence (Q9UUN9 1-343 F97W/A238K/L241M/M242W/Q245S/Y246G/L316M/T342M) with G246Y
Nature of the data set: Kinetic characterization (app. KM, app. kcat), Table 9c, variant E00158. In kind it is biochemical. To be noted: E00158, relative to WT = 1.

The target of data set [7] is T7, Sporidiobolus salmonicolor ketoreductase variant E00184, Trp97_Ala224_Lys238_Met241_Trp242_Ser245_Gly246_Met316_Met342, SEQ ID NO: 8, His-tag (Sporobolomyces salmonicolor, UniProt Q9UUN9, A238K/F97W/L241M/L316M/M242W/Q245S/S224A/T342M/Y246G).
T7 sequence (Q9UUN9 1-343 F97W/S224A/A238K/L241M/M242W/Q245S/Y246G/L316M/T342M): T1 sequence (Q9UUN9 1-343 F97W/A238K/L241M/M242W/Q245S/Y246G/L316M/T342M) with S224A
Nature of the data set: Kinetic characterization (app. KM, app. kcat), Table 9c, variant E00184 (first line). In kind it is biochemical. Conditions: relative to WT = 1.

Substrate in data set [8]: C[C@@H]1CC(=O)c2ncnc(N3CCN(C(=O)OC(C)(C)C)CC3)c21
Put plainly: Kinetic characterization (app. KM, app. kcat), Table 9c, variant E00144. The format is biochemical, Sporidiobolus salmonicolor. Conditions: other: E00144; pH 7.0.

Substrate in data set [9]: C[C@@H]1CC(=O)c2ncnc(N3CCN(C(=O)OC(C)(C)C)CC3)c21
Put plainly: Kinetic characterization (app. KM, app. kcat), Table 9c, wild type. In kind it is biochemical, Sporidiobolus salmonicolor. Conditions: other: WT; pH 7.0.

Substrate in data set [10]: C[C@@H]1CC(=O)c2ncnc(N3CCN(C(=O)OC(C)(C)C)CC3)c21
Nature of the data set: Kinetic characterization (app. KM, app. kcat), Table 9c, variant E00184 (first line). The format is biochemical, Sporidiobolus salmonicolor. Conditions: other: E00184, first line; pH 7.0.

Substrate in data set [11]: C[C@@H]1CC(=O)c2ncnc(N3CCN(C(=O)OC(C)(C)C)CC3)c21
Nature of the data set: Kinetic characterization (app. KM, app. kcat), Table 9c, variant E00158. The format is biochemical, Sporidiobolus salmonicolor. Conditions: other: E00158; pH 7.0.

Substrate in data set [12]: C[C@@H]1CC(=O)c2ncnc(N3CCN(C(=O)OC(C)(C)C)CC3)c21
Put plainly: Kinetic characterization (app. KM, app. kcat), Table 9c, variant E00128. In kind it is biochemical, Sporidiobolus salmonicolor. To be noted: other: E00128; pH 7.0.

Substrate in data set [13]: C[C@@H]1CC(=O)c2ncnc(N3CCN(C(=O)OC(C)(C)C)CC3)c21
Nature of the data set: Kinetic characterization (app. KM, app. kcat), Table 9c, variant E00184 (second line). In kind it is biochemical, Sporidiobolus salmonicolor. To be noted: other: E00184, second line; pH 7.0.

Changes are numbered by the printed parent chain. Names may count otherwise.

For the molecule `C[C@@H]1CC(=O)c2ncnc(N3CCN(C(=O)OC(C)(C)C)CC3)c21` [ketone of formula Ib], the rel. kcat is reported as 94 in data set [1] (relative to WT = 1, substrate saturation not reached); 64 in data set [2]; 13 in data set [3]; 1 in data set [4]; 12 in [5]; 31 in data set [6]. In [7], this molecule came in with a rel. kcat of 43. This molecule registered an app. kcat in data set [1] (substrate saturation not reached) of 45.8 ± 2.4 min−^1.

B1: Sporidiobolus salmonicolor ketoreductase variant E00144, Trp97_Met241_Trp242_Ser245_Met316_Met342, SEQ ID NO: 3, His-tag (Sporobolomyces salmonicolor; … (protein)
chain: T1 sequence (Q9UUN9 1-343 F97W/A238K/L241M/M242W/Q245S/Y246G/L316M/T342M) with K238A, G246Y
As a reminder, the Km is the substrate concentration at which the rate is half of its maximum. A word on the kcat: it is the maximal rate divided by the concentration of active sites. In general, kcat/Km refers to the second-order rate constant that governs catalysis at low substrate concentration. B1: in data set [8], the Km worked out at 175.2 ± 9.9 µM, the kcat is 0.103 ± 0.00333 s⁻¹ and the kcat/Km came out at 593 M⁻¹ s⁻¹.

B2: Sporidiobolus salmonicolor ketoreductase, wild type (WT), UniProt Q9UUN9, SEQ ID NO: 1 (Sporobolomyces salmonicolor) (protein)
chain: T1 sequence (Q9UUN9 1-343 F97W/A238K/L241M/M242W/Q245S/Y246G/L316M/T342M) with W97F, K238A, M241L, W242M, S245Q, G246Y, M316L, M342T
In the case of B2, in [9], the Michaelis-Menten constant (Km) was 11.9 ± 1.1 µM, the kcat turned out to be 0.00817 ± 0.000333 s⁻¹ and the kcat/Km worked out at 683 M⁻¹ s⁻¹.

B3: Sporidiobolus salmonicolor ketoreductase variant E00184, Trp97_Ala224_Lys238_Met241_Trp242_Ser245_Gly246_Met316_Met342, SEQ ID NO: 8, His-tag (Sporobolomyces … (protein)
chain: T1 sequence (Q9UUN9 1-343 F97W/A238K/L241M/M242W/Q245S/Y246G/L316M/T342M) with S224A
With B3, in [10], the Km stood at 471.7 ± 34.6 µM, the turnover number (kcat) amounted to 0.355 ± 0.0167 s⁻¹ and the kcat/Km is 753 M⁻¹ s⁻¹.

B4: Sporidiobolus salmonicolor ketoreductase variant E00158, Trp97_Lys238_Met241_Trp242_Ser245_Met316_Met342, SEQ ID NO: 6, His-tag (Sporobolomyces salmonicolor; … (protein)
chain: T1 sequence (Q9UUN9 1-343 F97W/A238K/L241M/M242W/Q245S/Y246G/L316M/T342M) with G246Y
As for B4, in data set [11], the Km was 299.7 ± 7.9 µM, the kcat stood at 0.255 ± 0.00667 s⁻¹ and the kcat/Km was 853 M⁻¹ s⁻¹.

B5: Sporidiobolus salmonicolor ketoreductase variant E00128, Trp97_Met241_Trp242_Ser245, SEQ ID NO: 2, His-tag (Sporobolomyces salmonicolor; F97W/L241M/M242W/Q245S) (protein)
chain: T1 sequence (Q9UUN9 1-343 F97W/A238K/L241M/M242W/Q245S/Y246G/L316M/T342M) with K238A, G246Y, M316L, M342T
On to B5, for which, in data set [12], the Km was determined as 162.8 ± 7.8 µM, the kcat turned out to be 0.0967 ± 0.00167 s⁻¹ and the kcat/Km is 592 M⁻¹ s⁻¹.

B6: Sporidiobolus salmonicolor ketoreductase variant E00184 (second line so labelled; in Table 9b W97 V134 A224 K238 M241 W242 S245 G246 M316 M342, the mutations … (protein)
chain: T1 sequence (Q9UUN9 1-343 F97W/A238K/L241M/M242W/Q245S/Y246G/L316M/T342M) with T134V, S224A
notes: second row labelled E00184, evidently E00185
As for B6, in data set [13], the Km was determined as 143.5 ± 5.5 µM, the kcat amounted to 0.525 ± 0.0133 s⁻¹ and the kcat/Km amounted to 3660 M⁻¹ s⁻¹.
